Laboratory results from patent US20050197296A1, “Agents for preventing and treating thrombocytopenia” (CHUGAI SEIYAKU KABUSHIKI KAISHA, priority 1996, published 2005).

Experiments:
[1] = tested on: platelet count; test: Test for daily administration to rabbit (platelet increasing action); format: in vivo, Japanese albino rabbits JW/CSK; conditions: 200 μg/kg subcutaneous daily
Description: Six 12-15 week old male Japanese albino rabbits JW/CSK were used in the experiment. The animals were individually kept in aluminum rabbit bracket cages Rb-1 (350^w×500^d×350^h mm) in a vavarium in a specific pathogen-free environment under the following conditions: temperature, 24±2° C.; humidity, 50±10%; illumination, light turned on at 5:00 and turned off at 19:00; ventilation, 15 changes/hr. Each animal was supplied with 120 g of a radiation-sterilized feed for rabbits RM (purchased from Funahashi Farm) per day. The animals were also allowed to drink to tap water ad libitum from an automatic water feeder.
Human PTH(1-84) was administered in a volume of 2 mL/vial at a concentration of 200 μg/mL. A solvent was also supplied in a volume of 2 mL/vial. Both the drug and the control were stored at −135° C. until use.
PTH (200 μg/kg) was administered to the rabbits subcutaneously at the back of their neck for 13 consecutive days. The solvent was similarly administered in the same volume as the dose of a rh-PTH solution calculated from their body weight.
Blood samples (0.5 mL) were withdrawn from the rabbits through the lateral auricular vein before the administration and on days 2, 6, 9 and 13 during the administration period. […]

[2] = tested on: platelet count; test: Effectiveness of PTH derivative, daily administration to mouse; format: in vivo, C57B1/6N mice; conditions: 200 μg/kg subcutaneous once a day for six days, blood 24 h after final administration
Description: Ten-week old male C57B1/6N mice as purchased from Japan Charles River Co., Ltd. were used in the experiment.
Drug solutions to be administered were prepared basically from human PTH(1-84) and human PTH(1-34) by the same procedure as in Example 1 to give a drug concentration of 20 μg/mL.
Eighteen mice were divided into three groups, which were administered subcutaneously with the two drug solutions and a control (citrate buffer) for six days on a once-a-day basis in a volume of 10 mL/kg. […] The administration was initiated at 10 a.m.
After 24 h of the final administration, a blood sample was withdrawn from each mouse through the orbital vein. Peripheral corpuscle counts were obtained with an automatic corpuscle counter F-800 (TOA MEDICAL ELECTRONICS CO., LTD).

[3] = tested on: platelet count; test: Test for daily administration to mouse (platelet increasing action); format: in vivo, C57B1/6N mice; conditions: subcutaneous once a day
Description: Nine-week old male C57B1/6N mice as purchased from Japan Charles River Co., Ltd. were used in the experiment.
Drug solutions to be administered were prepared basically by the same procedure as in Example 1 to give drug concentrations of 5, 20 and 80 μg/mL.
The mice under test were divided into four groups, which were administered subcutaneously with the three drug solutions and a control (citrate buffer) once a day in a volume of 10 mL/kg. […] The administration was initiated at 10 a.m.
On days 5, 7 and 9 after the start of administration, five or six mice were picked up at random from each group of animals and blood samples were withdrawn through the orbital vein. The sampling of blood was timed to occur 24 h of the final administration. Separate blood samples were taken from untreated mice (five in number) to obtain the value for normal mouse. Peripheral corpuscle counts were obtained with an automatic corpuscle counter F-800(TOA MEDICAL ELECTRONICS CO., LTD.).

[4] = tested on: platelet counts; test: Test for single-dose administration to mouse (platelet increasing action); format: in vivo, C57B1/6N mice; conditions: single dose 10 μg/kg through the tail vein, 6 and 9 h after the administration
Description: Nine-week old male C57B1/6N mice as purchased from Japan Charles River Co. Ltd. were used in the experiment.
Human PTH(1-84) was dissolved in a citrate buffer (pH 5; containing 0.05% of Tween 80) at final concentrations of 1, 0.2 and 0.04 ˜g/mL so as to prepare the drug solutions to be administered.
Each of the thus prepared drug solutions and a control (citrate buffer) was administered to 15 mice through the tail vein in a volume of 10 mL/kg. […] The administration was initiated at 10 a.m.
After 3, 6 and 9 hours of the administration, five mice were picked up at random from each group of animals and blood samples were withdrawn through the orbital vein. At 10 a.m. on the same day, separate blood samples were taken from untreated mice (four in number) to obtain the preadministration value. Peripheral corpuscle counts were obtained with an automatic corpuscle counter F-800 (TOA MEDICAL ELECTRONICS CO., LTD

[5] = tested on: BFU-E (precursor cells of erythrocytes); conditions: literature report, J. Clin. Invest. Vol. 67, 1263-1269:1981; cited from earlier work
[6] = tested on: CFU-GM (precursor cells of granulocytes and macrophages); conditions: literature report, J. Clin. Invest. Vol. 67, 1263-1269:1981; cited from earlier work

Row | Molecule | platelet count relative to the initial value ([1]; day 2 until day 6) | platelet count relative to the initial level ([1]; day 13) | platelet increasing action [2] | platelet count ([3]; 200 and 800 μg/kg, day 5) | platelet count versus control ([3]; all treated groups (50, 200 and 800 μg/kg), day 7) | platelet counts versus control [4] | in vitro colony formation by BFU-E [5] | in vitro colony formation by CFU-GM [6]
1 | human PTH(1-84) (protein, UniProt P01270 32-115, looked up, Parathyroid hormone) Parathyroid hormone: SVSEIQLMHNLGKHLNSMERVEWLRKKLQDVHNFVALGAPLAPRDAGSQRPRKKEDNVLVESHEKSLGEADKADVNVLTKAKSQ | two to four times as great as the initial value | substantially returned to the initial level | platelet increasing action | tendency to increase | significantly higher in platelet count than the control | significant increase in platelet counts over the control |  | 
2 | parathyroid hormone (PTH): PTH as studied in the literature report by Meytes et al; form and species not printed (protein, UniProt P01270 32-115, looked up, Parathyroid hormone) Parathyroid hormone: SVSEIQLMHNLGKHLNSMERVEWLRKKLQDVHNFVALGAPLAPRDAGSQRPRKKEDNVLVESHEKSLGEADKADVNVLTKAKSQ |  |  |  |  |  |  | interfered with the in vitro colony formation | interfered with the in vitro colony formation
